Read-outs that look alike come from different tables or passages of the source.
How the values were obtained:
[1] = target: F-actin (actin purified from chicken breast muscle) (chicken) (UniProt P68139); assay: co-sedimentation
[2] = target: F-actin (actin purified from chicken breast muscle) (chicken) (UniProt P68139); assay: co-sedimentation; remark: listed apart in the source

percent of NEM-S1 left in the supernatant (not bound) [1]: 20%
percent of NEM-S1 left in the supernatant (not bound) [2]: 20%
Substance: N-ethylmaleimide (NEM) modified skeletal muscle myosin subfragment 1 (S1) (domain or fragment)
